In article PMC9352680, “A comprehensive thermodynamic model for RNA binding by the Saccharomyces cerevisiae Pumilio protein PUF4” one finds Kd data, which are given here for 27 molecules.

Where a chain is given by its changes, count along the chain named. Numbers in names are those of the source.

T1: PUF4 RNA-binding domain (Saccharomyces cerevisiae, UniProt P25339 537-888)
T1 sequence: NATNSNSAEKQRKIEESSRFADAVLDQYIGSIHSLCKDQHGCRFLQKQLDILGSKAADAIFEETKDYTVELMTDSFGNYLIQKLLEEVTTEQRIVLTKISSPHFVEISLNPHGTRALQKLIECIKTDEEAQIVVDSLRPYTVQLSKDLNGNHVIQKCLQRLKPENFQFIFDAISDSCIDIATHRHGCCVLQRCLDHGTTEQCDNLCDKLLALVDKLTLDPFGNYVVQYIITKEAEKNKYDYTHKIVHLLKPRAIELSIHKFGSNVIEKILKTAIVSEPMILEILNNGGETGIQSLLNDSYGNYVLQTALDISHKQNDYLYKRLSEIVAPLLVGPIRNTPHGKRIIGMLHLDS

B1: Ic_S2_P4E.1_K4.1_C4.1_H4.1_A4.1_[T5A]_[A6C]_[T7C]_F4.1_[A9C]_T4.1 (ssRNA)
RNA: UUUGAUUAAUAUGAUAUCGUUCUUUCUUGUAACCUCUUCUUUCUCGAUAUCAUAUUAAUCUUU
B2: Ic_S2_P4E.1_K4.1_C4.1_H4.1_A4.1_[T5C]_[T7C]_F4.1_[A9C]_T4.1 (ssRNA)
RNA: B1 RNA with A32C, C33A
B3: Ic_S2_P4E.1_K4.1_C4.1_H4.1_A4.1_[T5C]_[T7C]_F4.1_[A9G]_T4.1 (ssRNA)
RNA: B1 RNA with A32C, C33A, C36G
B4: Ic_S2_P4E.1_K4.1_C4.1_H4.1_A4.1_[T5A]_[A6T]_[T7C]_F4.1_[T8C]_[A9T]_T4.1 (ssRNA)
RNA: B1 RNA with C33U, U35C, C36U
B5: Ic_S2_P4E.1_K4.1_C4.1_H4.1_A4.1_[T5A]_[A6T]_[T7C]_F4.1_T4.1 (ssRNA)
RNA: B1 RNA with C33U, C36A
B6: Ic_S2_P4E.1_K4.1_C4.1_H4.1_A4.1_[T5C]_[T7A]_F4.1_[A9G]_T4.1 (ssRNA)
RNA: B1 RNA with A32C, C33A, C34A, C36G
B7: Ic_S2_P4E.1_K4.1_C4.1_H4.1_A4.1_[T5C]_[T7A]_F4.1_[T8C]_T4.1 (ssRNA)
RNA: B1 RNA with A32C, C33A, C34A, U35C, C36A
B8: Ic_S2_P4E.1_K4.1_C4.1_H4.1_A4.1_[T5A]_[A6C]_[T7C]_F4.1_[T8C]_[A9C]_T4.1 (ssRNA)
RNA: B1 RNA with U35C
B9: Ic_S2_P4E.1_K4.1_C4.1_H4.1_A4.1_[T5A]_[A6C]_[T7A]_F4.1_[T8G]_[A9C]_T4.1 (ssRNA)
RNA: B1 RNA with C34A, U35G
B10: Ic_S2_P4E.1_K4.1_C4.1_H4.1_A4.1_[T5A]_[A6T]_[T7C]_F4.1_[T8C]_[A9C]_T4.1 (ssRNA)
RNA: B1 RNA with C33U, U35C
B11: Ic_S2_P4E.1_K4.1_C4.1_H4.1_A4.1_[T5A]_[A6C]_[T7G]_F4.1_T4.1 (ssRNA)
RNA: B1 RNA with C34G, C36A
B12: Ic_S2_P4E.1_K4.1_C4.1_H4.1_A4.1_[T5A]_[A6T]_[T7A]_F4.1_[T8G]_[A9C]_T4.1 (ssRNA)
RNA: B1 RNA with C33U, C34A, U35G
B13: Ic_S2_P4E.1_K4.1_C4.1_H4.1_A4.1_[T5A]_[A6C]_[T7C]_F4.1_[A9T]_T4.1 (ssRNA)
RNA: B1 RNA with C36U
B14: Ic_S2_P4E.1_K4.1_C4.1_H4.1_A4.1_[T5A]_[A6T]_[T7A]_F4.1_[T8A]_[A9T]_T4.1 (ssRNA)
RNA: B1 RNA with C33U, C34A, U35A, C36U
B15: Ic_S2_P4E.1_K4.1_C4.1_H4.1_A4.1_[T5A]_[A6T]_[T7C]_F4.1_[T8G]_[A9G]_T4.1 (ssRNA)
RNA: B1 RNA with C33U, U35G, C36G
B16: Ic_S2_P4E.1_K4.1_C4.1_H4.1_A4.1_[T5C]_F4.1_[T8C]_[A9G]_T4.1 (ssRNA)
RNA: B1 RNA with A32C, C33A, C34U, U35C, C36G
B17: Ic_S2_P4E.1_K4.1_C4.1_H4.1_A4.1_[T5A]_[A6C]_[T7G]_F4.1_[T8G]_[A9T]_T4.1 (ssRNA)
RNA: B1 RNA with C34G, U35G, C36U
B18: Ic_S2_P4E.1_K4.1_C4.1_H4.1_A4.1_[T5A]_[A6C]_[T7G]_F4.1_[T8C]_[A9C]_T4.1 (ssRNA)
RNA: B1 RNA with C34G, U35C
B19: Ic_S2_P4E.1_K4.1_C4.1_H4.1_A4.1_[T5A]_[A6C]_[T7C]_F4.1_[T8A]_[A9C]_T4.1 (ssRNA)
RNA: B1 RNA with U35A
B20: Ic_S2_P4E.1_K4.1_C4.1_H4.1_A4.1_[T5A]_[A6T]_[T7C]_F4.1_[T8G]_[A9C]_T4.1 (ssRNA)
RNA: B1 RNA with C33U, U35G
B21: Ic_S2_P4E.1_K4.1_C4.1_H4.1_A4.1_[T5A]_[A6C]_F4.1_[T8A]_[A9G]_T4.1 (ssRNA)
RNA: B1 RNA with C34U, U35A, C36G
B22: Ic_S2_P4E.1_K4.1_C4.1_H4.1_A4.1_[T5A]_[A6C]_[T7G]_F4.1_[T8C]_[A9T]_T4.1 (ssRNA)
RNA: B1 RNA with C34G, U35C, C36U
B23: Ic_S2_P4E.1_K4.1_C4.1_H4.1_A4.1_[T5A]_[A6C]_[T7C]_F4.1_[T8C]_T4.1 (ssRNA)
RNA: B1 RNA with U35C, C36A
B24: Ic_S2_P4E.1_K4.1_C4.1_H4.1_A4.1_[T5A]_[A6C]_[T7A]_F4.1_[T8A]_[A9T]_T4.1 (ssRNA)
RNA: B1 RNA with C34A, U35A, C36U
B25: Ic_S1_P3E.1_K3.1_C3.1_H3.1_A3.1_[T5A]_[A6G]_F3.1_T3.1 (ssRNA)
RNA: UCUCUUUGUAAGUAUCUCUU
B26: Ic_S1_P3E.1_K3.1_C3.1_H3.1_A3.1_[T5C]_[A6T]_F3.1_T3.1 (ssRNA)
RNA: UCUCUUUGUACUUAUCUCUU
B27: Ib_S1_P3E.1_K3.1_C3.1_H3.1_A3.1_[T5C]_[A6C]_F3.1_T3.1 (ssRNA)
RNA: UCUCUUUGUACCUAUCUCUU

For the series, the target named is T1, PUF4 RNA-binding domain. As to the kind of experiment: Mg; RNA-MaP; 20 mM Na-HEPES pH 7.4, 30 mM KOAc, 0.75 mM MgCl2, 0.1% Tween-20, 5% glycerol, 0.1 mg/mL BSA, 2 mM DTT; 25 C; 0.0125-409.6 nM protein. The settings on record: tags: N-His6-TEV cleaved; C-SNAP kept, Cy3B-labelled; label: tethered on chip by stalled RNA polymerase.
Consider B1, for which the Kd (usually the free concentration of one partner at which half of the binding sites on the other are occupied at equilibrium, for simple one-to-one binding) came out at 44.4 nM. As to B2, the affinity, expressed as Kd, was 5.21 nM. As for B3, the figure is 2.73 nM. The value for B4 was 283 nM; that for B5 was 2.23 nM.

On to B6, for which the Kd stood at 7.25 nM. The value for B7 was 17.4 nM; that for B8 was 582 nM.

Turning to B9, the Kd was found to be 777 nM. The value for B10 was 454 nM; that for B11 was 11 nM; that for B12 was 1120 nM. With B13, the Kd turned out to be 24.6 nM. The value for B14 was 94.7 nM; that for B15 was 1800 nM. As for B16, the figure is 22.3 nM.

B17 displayed a Kd of 1410 nM. B18: the Kd stood at 851 nM. As to B19, binding was characterised by a dissociation constant (Kd) of 1570 nM.

Molecule B20 came in with a Kd of 629 nM. The value for B21 was 946 nM. The value for B22 was 190 nM; that for B23 was 666 nM.

B24 yielded a Kd of 45.2 nM. With B25, the Kd worked out at 1780 nM. On to B26, for which the Kd is 66.4 nM. Molecule B27 had a Kd of 86.7 nM.
